Changes are numbered by the printed parent chain. In names and notes the source's numbering stands.
B1: CsoS1A (in recombinant α-carboxysome midi-shells) (natural protein, Halothiobacillus neapolitanus c2)
chain: MADVTGIALGMIETRGLVPAIEAADAMTKAAEVRLVGRQFVGGGYVTVLVRGETGAVNAAVRAGADACERVGDGLVAAHIIARVHSEVENILPKAPQA
notes: CsoS1A, hexameric shell protein of the α-carboxysome, Halothiobacillus neapolitanus c2; the gene as it stands in the midi-shell operon derived from the synthetic cso-2 operon; CsoS1A, CsoS1B and CsoS1C could not be told apart in the symmetrised maps; also called CsoS1 hexamer; BMC-H; source: E. coli BW25113, midi-shell operon (L-arabinose induced), in purified shells
B2: His-tagged CsoS1B (expressed alone or coexpressed with CsoS1A or CsoS1C) (natural protein, Halothiobacillus neapolitanus c2, UniProt P45690 1-110, looked up)
chain: MATTHGIALGMIETRGLVPAIEAADAMTKAAEVRLVGRSFVGGGYVTVMVRGETGAVNAAVRAGADACERVGDGLVAAHIIARVHSEVEIILPETPEDSDSAWCIANLNS
notes: CsoS1B, Halothiobacillus neapolitanus c2; gene fragment amplified from the cso-2 operon; Six copies when expressed alone; about 1.5 copies per hexamer in the coexpressed CsoS1A/B sample; source: E. coli BL21 (DE3), pET-22b, purified (Ni-NTA, Superdex 200); not shown: His tag, C-terminal, kept
B3: His-tagged CsoS1A (individually expressed) (natural protein, Halothiobacillus neapolitanus c2)
chain: B1 chain
notes: CsoS1A, Halothiobacillus neapolitanus c2; gene fragment amplified from the cso-2 operon; source: E. coli BL21 (DE3), pET-22b, purified (Ni-NTA, Superdex 200); not shown: His tag, C-terminal, kept
B4: CsoS1A (untagged, coexpressed with His-tagged CsoS1B) (natural protein, Halothiobacillus neapolitanus c2)
chain: B1 chain
notes: CsoS1A, Halothiobacillus neapolitanus c2; gene amplified from the cso-2 operon, the His tag stands on CsoS1B only; also called S1A-S1B (coexpressed sample); source: E. coli BL21 (DE3), pET-22b csoS1A-csoS1B, co-purified with His-tagged CsoS1B (Ni-NTA, Superdex 200)
B5: CsoS1C (untagged, coexpressed with His-tagged CsoS1B) (natural protein, Halothiobacillus neapolitanus c2)
chain: B1 chain with D3A, Q97E
notes: CsoS1C, Halothiobacillus neapolitanus c2; gene amplified from the cso-2 operon, the His tag stands on CsoS1B only; source: E. coli BL21 (DE3), pET-22b csoS1C-csoS1B, co-purified with His-tagged CsoS1B (Ni-NTA, Superdex 200)
B6: CsoS4A (in recombinant α-carboxysome shells) (natural protein, Halothiobacillus neapolitanus c2)
chain: MKIMQVEKTLVSTNRIADMGHKPLLVVWEKPGAPRQVAVDAIGCIPGDWVLCVGSSAAREAAGSKSYPSDLTIIGIIDQWNGE
notes: CsoS4A, pentameric vertex protein of the α-carboxysome shell, Halothiobacillus neapolitanus c2; the gene as it stands in the shell operon; All pentamers of the shell models were assigned to CsoS4A; also called CsoS4 pentamer; BMC-P; source: E. coli BW25113, midi-shell operon or CsoS1C-based mini-shell operon, in purified shells
B7: CsoS1C (individually expressed, C-terminal His tag) (natural protein, Halothiobacillus neapolitanus c2)
chain: B1 chain with D3A, Q97E
notes: CsoS1C, Halothiobacillus neapolitanus c2; gene fragment amplified from the cso-2 operon; source: E. coli BL21 (DE3), pET-22b, purified (Ni-NTA, Superdex 200)
B8: CsoS4B (C-terminal His tag; expressed alone or coexpressed with CsoS4A) (natural protein, Halothiobacillus neapolitanus c2, UniProt O85044 1-81, looked up)
chain: MEVMRVRSDLIATRRIPGLKNISLRVMEDATGKVSVACDPIGVPEGCWVFTISGSAARFGVGDFEILTDLTIGGIIDHWVT
notes: CsoS4B, Halothiobacillus neapolitanus c2; gene fragment amplified from the cso-2 operon; Five copies when expressed alone; source: E. coli BL21 (DE3), pET-22b, purified (Ni-NTA, Superdex 200)
B9: CsoS4A (individually expressed, C-terminal His tag) (natural protein, Halothiobacillus neapolitanus c2)
chain: B6 chain
notes: CsoS4A, Halothiobacillus neapolitanus c2; gene fragment amplified from the cso-2 operon; In solution pentamers and other aggregation forms; source: E. coli BL21 (DE3), pET-22b, purified (Ni-NTA, Superdex 200)
B10: CsoS1C (in the CsoS1C-based T = 9 mini-shell) (natural protein, Halothiobacillus neapolitanus c2)
chain: B1 chain with D3A, Q97E
notes: CsoS1C, shell hexamer paralog, Halothiobacillus neapolitanus c2; differs from CsoS1A at the 3rd and 97th amino acids; the gene as it stands in the mini-shell operon; source: E. coli BW25113, CsoS1C-based mini-shell operon, in purified shells

Tests used:
[1] = biological target: the molecule itself; assay: cryo-EM structure; purified midi-shells assembled in E. coli from the coexpressed proteins; T = 9, T = 9 Q = 12, T = 13, T = 16 and T = 19 shells at 2.3, 2.99, 2.93, 2.75 and 3.04 Å, symmetry imposed
[2] = biological target: T1, C-terminal domain of CsoS2 (CsoS2-C) (Halothiobacillus neapolitanus c2, UniProt O85041 604-869); assay: as above; conditions: both partners purified
T1 construct: CsoS2, scaffolding/linker protein of the α-carboxysome, Halothiobacillus neapolitanus c2; source: E. coli BW25113, midi-shell operon or CsoS1C-based mini-shell operon, in purified shells
T1 sequence (looked up): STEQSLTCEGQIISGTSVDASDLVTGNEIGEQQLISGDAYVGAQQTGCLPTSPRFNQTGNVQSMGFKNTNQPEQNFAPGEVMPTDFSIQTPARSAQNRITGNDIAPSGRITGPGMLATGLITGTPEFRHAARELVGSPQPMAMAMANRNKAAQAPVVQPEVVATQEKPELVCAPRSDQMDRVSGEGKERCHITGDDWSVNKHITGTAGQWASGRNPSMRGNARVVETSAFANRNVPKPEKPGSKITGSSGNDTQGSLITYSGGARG

[3] = biological target: the molecule itself; assay: SEC + other: dynamic light scattering; Superdex 200 in 50 mM tris-HCl pH 8.0, 100 mM NaCl; DLS on DynaPro NanoStar, in triplicate; proteins expressed alone or coexpressed and purified by Ni-NTA through the His tag of one of them
[4] = biological target: B2; assay: SDS-PAGE of washed crystals; crystals of the coexpressed CsoS1A and His-tagged CsoS1B sample, washed with buffer for various times before SDS-PAGE; conditions: both partners purified
[5] = biological target: the molecule itself; assay: crystal structure; crystals of the purified coexpressed CsoS1A and His-tagged CsoS1B sample, hanging drop, 18°C; 2.1 Å
[6] = biological target: B2; assay: SEC + other: dynamic light scattering; Superdex 200 in 50 mM tris-HCl pH 8.0, 100 mM NaCl; DLS on DynaPro NanoStar, in triplicate; proteins expressed alone or coexpressed and purified by Ni-NTA through the His tag of one of them; conditions: both partners purified
[7] = biological target: B1; assay: cryo-EM structure; purified midi-shells assembled in E. coli from the coexpressed proteins; T = 9, T = 9 Q = 12, T = 13, T = 16 and T = 19 shells at 2.3, 2.99, 2.93, 2.75 and 3.04 Å, symmetry imposed; conditions: both partners purified
[8] = biological target: B10; assay: cryo-EM structure; purified CsoS1C-based T = 9 mini-shell assembled in E. coli from the coexpressed proteins; 1.8 Å; conditions: both partners purified
[9] = biological target: T2, CsoS4A (untagged, coexpressed with His-tagged CsoS4B) (Halothiobacillus neapolitanus c2, UniProt O85043 1-83); assay: SEC + other: dynamic light scattering; Superdex 200 in 50 mM tris-HCl pH 8.0, 100 mM NaCl; DLS on DynaPro NanoStar, in triplicate; proteins expressed alone or coexpressed and purified by Ni-NTA through the His tag of one of them; conditions: both partners purified
T2 construct: CsoS4A, Halothiobacillus neapolitanus c2; gene amplified from the cso-2 operon, the His tag stands on CsoS4B only; source: E. coli BL21 (DE3), pET-22b csoS4A-csoS4B, co-purified with His-tagged CsoS4B (Ni-NTA, Superdex 200)
T2 sequence: B6 chain

[10] = biological target: the molecule itself; assay: SEC; Superdex 200 in 50 mM tris-HCl pH 8.0, 100 mM NaCl; individually expressed CsoS4 proteins
[11] = biological target: the molecule itself; assay: cryo-EM structure; purified CsoS1C-based T = 9 mini-shell assembled in E. coli from the coexpressed proteins; 1.8 Å
[12] = biological target: T1, C-terminal domain of CsoS2 (CsoS2-C); assay: as above; conditions: both partners purified

## B1
[1]
  stoichiometry N: 6
[2]
  binding result: binds

## B2
[3]
  stoichiometry N: 6

## B3
[3]
  stoichiometry N: 6

## B4
[4]
  stoichiometry N: ~3 CsoS1A per CsoS1B
[5]
  stoichiometry N: 6

## B5
[6]
  binding result: binds

## B6
[1]
  stoichiometry N: 5
[7]
  binding result: binds
[8]
  binding result: binds

## B7
[3]
  stoichiometry N: 6

## B8
[9]
  binding result: binds
[10]
  stoichiometry N: 5

## B9
[10]
  stoichiometry N: 5

## B10
[11]
  stoichiometry N: 6
[12]
  binding result: binds

— article PMC11606499, “Molecular principles of the assembly and construction of a carboxysome shell” (Science Advances, 2024)
